Legend:
[1] = molecular target: Str enolase 137/363–1 (ΔK435) (Streptococcus pyogenes) (UniProt P69949)
[2] = molecular target: Str enolase 137/363–1 (ΔK435) (Streptococcus pyogenes) (UniProt P69949); assay: AUC; sedimentation velocity, Beckman XL-I, 20°C, 30 000-37 000 RPM, TME-SO4 (50 mM Tris, 1 mM MgSO4, 0.1 mM EDTA, 44 mN H2SO4, pH 7.4); c(s) in Sedfit; octamer to 8 monomers
[3] = molecular target: Str enolase 137/363–2 (ΔK434-K435) (Streptococcus pyogenes) (UniProt P69949)
[4] = molecular target: Str enolase 137/363–2 (ΔK434-K435) (Streptococcus pyogenes) (UniProt P69949); assay: AUC; sedimentation velocity, Beckman XL-I, 20°C, 30 000-37 000 RPM, TME-SO4 (50 mM Tris, 1 mM MgSO4, 0.1 mM EDTA, 44 mN H2SO4, pH 7.4); c(s) in Sedfit; octamer to 8 monomers
[5] = molecular target: Str enolase 137/363–3 (ΔL433-K435) (Streptococcus pyogenes) (UniProt P69949)
[6] = molecular target: Str enolase 137/363–3 (ΔL433-K435) (Streptococcus pyogenes) (UniProt P69949); assay: AUC; sedimentation velocity, Beckman XL-I, 20°C, 30 000-37 000 RPM, TME-SO4 (50 mM Tris, 1 mM MgSO4, 0.1 mM EDTA, 44 mN H2SO4, pH 7.4); c(s) in Sedfit; octamer to 8 monomers
[7] = molecular target: Str enolase 137/363–4 (ΔN432-K435) (Streptococcus pyogenes) (UniProt P69949)
[8] = molecular target: Str enolase 137/363–4 (ΔN432-K435) (Streptococcus pyogenes) (UniProt P69949); assay: AUC; sedimentation velocity, Beckman XL-I, 20°C, 30 000-37 000 RPM, TME-SO4 (50 mM Tris, 1 mM MgSO4, 0.1 mM EDTA, 44 mN H2SO4, pH 7.4); c(s) in Sedfit; octamer to 8 monomers
[9] = molecular target: Str enolase 137/363–5 (ΔY431-K435) (Streptococcus pyogenes) (UniProt P69949)
[10] = molecular target: Str enolase 137/363–5 (ΔY431-K435) (Streptococcus pyogenes) (UniProt P69949); assay: AUC; sedimentation velocity, Beckman XL-I, 20°C, 30 000-37 000 RPM, TME-SO4 (50 mM Tris, 1 mM MgSO4, 0.1 mM EDTA, 44 mN H2SO4, pH 7.4); c(s) in Sedfit; octamer to 8 monomers
[11] = molecular target: Str enolase 137/363–6 (ΔF430-K435) (Streptococcus pyogenes) (UniProt P69949)
[12] = molecular target: Str enolase 137/363–6 (ΔF430-K435) (Streptococcus pyogenes) (UniProt P69949); remark: listed apart in the source
[13] = molecular target: Str enolase 137/363–8 (ΔK428-K435) (Streptococcus pyogenes) (UniProt P69949)
[14] = molecular target: Str enolase 137/363–8 (ΔK428-K435) (Streptococcus pyogenes) (UniProt P69949); remark: listed apart in the source
[15] = molecular target: Str enolase DB E363G (Streptococcus pyogenes) (UniProt P69949)
[16] = molecular target: Str enolase DB E363G (Streptococcus pyogenes) (UniProt P69949); assay: AUC; sedimentation velocity, Beckman XL-I, 20°C, 30 000-37 000 RPM, TME-SO4 (50 mM Tris, 1 mM MgSO4, 0.1 mM EDTA, 44 mN H2SO4, pH 7.4); c(s) in Sedfit; octamer to 8 monomers
[17] = molecular target: Str enolase DB F137L (Streptococcus pyogenes) (UniProt P69949)
[18] = molecular target: Str enolase DB F137L (Streptococcus pyogenes) (UniProt P69949); assay: AUC; sedimentation velocity, Beckman XL-I, 20°C, 30 000-37 000 RPM, TME-SO4 (50 mM Tris, 1 mM MgSO4, 0.1 mM EDTA, 44 mN H2SO4, pH 7.4); c(s) in Sedfit; octamer to 8 monomers
[19] = molecular target: enolase from Streptococcus pyogenes F137L/E363G (Streptococcus pyogenes) (UniProt P69949)
[20] = molecular target: enolase from Streptococcus pyogenes F137L/E363G (Streptococcus pyogenes) (UniProt P69949); assay: AUC; sedimentation velocity, Beckman XL-I, 20°C, 30 000-37 000 RPM, TME-SO4 (50 mM Tris, 1 mM MgSO4, 0.1 mM EDTA, 44 mN H2SO4, pH 7.4); c(s) in Sedfit; octamer to 8 monomers

Substance: Str enolase 137/363–1 (ΔK435) (from UniProt P69949 1-434) (enzyme)
- Molecular Activity (2-phosphoglycerate to phosphoenolpyruvate, 20°C), taken as the amount of octamer [1]: 4040 min⁻¹
- stoichiometry N [2]: 8

Substance: Str enolase 137/363–2 (ΔK434-K435) (from UniProt P69949 1-433) (enzyme)
- Molecular Activity (2-phosphoglycerate to phosphoenolpyruvate, 20°C), taken as the amount of octamer [3]: 1730 min⁻¹
- stoichiometry N [4]: 8

Substance: Str enolase 137/363–3 (ΔL433-K435) (from UniProt P69949 1-432) (enzyme)
- Molecular Activity (2-phosphoglycerate to phosphoenolpyruvate, 20°C), taken as the amount of octamer [5]: 497 min⁻¹
- stoichiometry N [6]: 8

Substance: Str enolase 137/363–4 (ΔN432-K435) (from UniProt P69949 1-431) (enzyme)
- Molecular Activity (2-phosphoglycerate to phosphoenolpyruvate, 20°C), taken as the amount of octamer [7]: 27 min⁻¹
- stoichiometry N [8]: 8

Substance: Str enolase 137/363–5 (ΔY431-K435) (from UniProt P69949 1-430) (enzyme)
- Molecular Activity (2-phosphoglycerate to phosphoenolpyruvate, 20°C), taken as the amount of octamer [9]: 0.36 min⁻¹
- stoichiometry N [10]: 8

Substance: Str enolase 137/363–6 (ΔF430-K435) (from UniProt P69949 1-429) (enzyme)
- Molecular Activity (2-phosphoglycerate to phosphoenolpyruvate, 20°C), taken as the amount of octamer [11]: 0.22 min⁻¹
- total amount of octamer estimated from activity assays, as percent of the concentration of the Str enolase DB [12]: 0.0002%

Substance: Str enolase 137/363–8 (ΔK428-K435) (from UniProt P69949 1-427) (enzyme)
- Molecular Activity (2-phosphoglycerate to phosphoenolpyruvate, 20°C), taken as the amount of octamer [13]: 0.08 min⁻¹
- total amount of octamer estimated from activity assays, as percent of the concentration of the Str enolase DB [14]: 0.0002%

Substance: Str enolase DB E363G (from UniProt P69949 1-435) (enzyme)
- Molecular Activity (2-phosphoglycerate to phosphoenolpyruvate, 20°C), taken as the amount of octamer [15]: 8460 min⁻¹
- stoichiometry N [16]: 8

Substance: Str enolase DB F137L (from UniProt P69949 1-435) (enzyme)
- Molecular Activity (2-phosphoglycerate to phosphoenolpyruvate, 20°C), taken as the amount of octamer [17]: 7160 min⁻¹
- stoichiometry N [18]: 8

Substance: enolase from Streptococcus pyogenes F137L/E363G (from UniProt P69949 1-435) (enzyme)
- Molecular Activity (2-phosphoglycerate to phosphoenolpyruvate, 20°C), taken as the amount of octamer [19]: 5250 min⁻¹
- stoichiometry N [20]: 8

Source: PMC4546058
